Data set [1] in a line: LAR enzyme activity of recombinant LAR protein in E. coli extracts (radio-HPLC). Type of data set: biochemical. The settings on record: bacterial protein extracts after induction, HPLC system IIa. How it is done:
LAR was assayed essentially as described by Tanner and Kristiansen (1993). The standard assay contained in total volume of 100 μl assay buffer containing 10 mg glycerol, 10 μmol NaPi, 0.5 μmol NADPH, 0.1 μmol DDT, all adjusted to pH7 with NaOH, 0.25 nmol [^3H]-3,4-cis-leucocyanidin (1 μCi), or other suitable flavan-3,4-diol substrate (Table 2), and enzyme extract. The assay was initiated by the addition of an appropriate amount of enzyme extract and incubated at 30° C. for 30 min. The incubation was terminated by extraction with 0.2 ml ethyl acetate containing 10 nmol of unlabelled catechin as carrier. The ethyl acetate extracts were dried under a stream of nitrogen at room temperature. The residue was dissolved in 100 μl of water and analyzed by radio-HPLC using system II (see above and Table 2). In each radio-chromatogram of the assay mixtures derived from the leaf extracts referred to herein, only the substrate, 3-4-cis-leucocyanidin, or the product, catechin were detected.
The complete amino acid coding sequence of the LAR cDNA was introduced into the BamHI site of the pET3a expression vector to express the LAR382 polypeptide containing the 14 amino acid N-terminal T7 Tag. The resultant expression construct was then introduced into E. coli strain Rosetta(DE3) RARE/pLysS.
A truncated form of LAR comprising amino acids 1-317 was also introduced into the BamHI and HindIII sites of pQE30 expression vector to express the LAR317 polypeptide containing the 10 amino acid N-terminal RGS-6×His epitope. The resultant expression construct was then introduced into E. coli strain XL1 Blue.
Expression of the full length recombinant LAR382 protein, or the truncated form LAR317, was induced as described in the preceding Example. Bacterial protein extracts were assayed for LAR enzyme activity, essentially as described in Example 1.

A short description of data set [2]: Storage stability of partially purified LAR enzyme preparation. The class given is physicochemical. The settings on record: 2,360 fold purified concentrate mixed with equal volume of glycerol, stored at −20 C. The protocol: Fractions with LAR activity were combined and then concentrated to a final volume of 1 ml by applying nitrogen over a YM10 membrane (Amicon). The concentrate was mixed with an equal volume of glycerol and stored at −20 C.
The final yield of enzyme activity was 8.7% and purification was 2,360 fold.

Results on three molecules are retold here after patent US7892803B2, “Gene and uses therefor to modify pasture qualities of crops” (Commonwealth Scientific and Industrial Research Organisation, priority 2001, dated 2011).

B1: LAR317: Truncated recombinant LAR, amino acids 1-317 of SEQ ID NO: 29, with N-terminal RGS-6×His epitope, expressed in E. coli (protein, listed as Desmodium uncinatum)
chain: MTVSGAIPSMTKNRTLVVGGTGFIGQFITKASLGFGYPTFLLVRPGPVSPSKAVIIKTFQDKGAKVIYGVINDKECMEKILKEYEIDVVISLVGGARLLDQLTLLEAIKSVKTIKRFLPSEFGHDVDRTDPVEPGLTMYKEKRLVRRAVEEYGIPFTNICCNSIASWPYYDNCHPSQVPPPMDQFQIYGDGNTKAYFIDGNDIGKFTMKTIDDIRTLNKNVHFRPSSNCYSINELASLWEKKIGRTLPRFTVTADKLLAHAAENIIPESIVSSFTHDIFINGCQVNFSIDEHSDVEIDTLYPDEKFRSLDDCYEDFV
modifications: N-terminal RGS-6xHis tag
On to B1, for which the results for the “LAR enzyme activity (reduction of leucocyanidin to catechin)” value in data set [1] and in data set [1] (listed as pET LAR317) were “catalysed the reduction of [4-^3H]-2,3-trans-3,4-cis-leucocyanidin” and “LAR activity sufficient to convert all of the leucocyanidin substrate into catechin”, respectively.

B2: LAR382: Full length recombinant D. uncinatum LAR polypeptide (SEQ ID NO: 29) with N-terminal T7 Tag, expressed in E. coli from pET3a (protein, listed as Desmodium uncinatum)
chain: MTVSGAIPSMTKNRTLVVGGTGFIGQFITKASLGFGYPTFLLVRPGPVSPSKAVIIKTFQDKGAKVIYGVINDKECMEKILKEYEIDVVISLVGGARLLDQLTLLEAIKSVKTIKRFLPSEFGHDVDRTDPVEPGLTMYKEKRLVRRAVEEYGIPFTNICCNSIASWPYYDNCHPSQVPPPMDQFQIYGDGNTKAYFIDGNDIGKFTMKTIDDIRTLNKNVHFRPSSNCYSINELASLWEKKIGRTLPRFTVTADKLLAHAAENIIPESIVSSFTHDIFINGCQVNFSIDEHSDVEIDTLYPDEKFRSLDDCYEDFVPMVHDKIHAGKSGEIKIKDGKPLVQTGTIEEINKDIKTLVETQPNEEIKKDMKALVEAVPISAMG
modifications: N-terminal T7 tag
Turning to B2, the figures for the “LAR enzyme activity (reduction of leucocyanidin to catechin)” value in data set [1] and in data set [1] (listed as pET LAR382) were “catalysed the reduction of [4-^3H]-2,3-trans-3,4-cis-leucocyanidin” and “LAR activity sufficient to convert all of the leucocyanidin substrate into catechin”, respectively.

B3: LAR: Leucoanthocyanidin reductase enzyme partially purified 2,360 fold from young leaves of Desmodium uncinatum (protein, listed as Desmodium uncinatum)
chain: B2 chain
Consider B3, for which, in data set [2], the “stability of LAR enzyme activity on storage” value was “stable for up to one year”.
